The target in this test is S160 (Bacillus amyloliquefaciens, UniProt P00782, DEL180-188/E263S/G190A/G235S/G273S/G276A/I138L/K150N/M157F/N319G/N325S/Q313C/Q378E/S116A/S295P/T361A/Y211A/Y324L). The test is described as follows: inhibition of S160 by prodomain pR58. In kind it is biochemical.
S160, sequence (P00782 other isoform, or with tags, fused parts or gaps with the stated changes): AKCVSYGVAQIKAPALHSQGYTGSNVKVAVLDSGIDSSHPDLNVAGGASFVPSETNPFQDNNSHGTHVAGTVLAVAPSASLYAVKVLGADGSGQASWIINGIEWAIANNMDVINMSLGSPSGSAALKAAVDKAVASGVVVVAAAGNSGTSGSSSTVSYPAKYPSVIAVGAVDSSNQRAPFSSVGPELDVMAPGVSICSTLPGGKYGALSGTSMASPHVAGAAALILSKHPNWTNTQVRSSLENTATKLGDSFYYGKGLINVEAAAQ

B1: pR58: version of pR8 with its last four amino acids (AHAY) replaced with FRAM (protein)
chain: AGKSNGEKKYIVGFKSGIKSCAKKQDVISEKGGKLQKCFKYVDAASATLNEKAVKELKKDPSVAYVEEDKVFRAM
modifications: pR58 (pR8FRAM) variant of SEQ ID NO 2
notes: version of pR8 with its last four amino acids (AHAY) replaced with FRAM
Consider B1, for which the Ki is around 0.03 nM.

One may read the Ki as a measure of affinity in units of concentration, obtained from inhibition or displacement. The low end stands for higher affinity, the high end for lower affinity.

Source of the values: patent publication US7824885B2, “Engineered proteases for affinity purification and processing of fusion proteins” (University of Maryland, College Park, priority 2003, dated 2010).
